For one sequence, binding signal results are on record in PMC12412624, “Engineered Cas12j‐8 is a Versatile Platform for Multiplexed Genome Modulation in Mammalian Cells”.

Where a chain is given by its changes, count along the chain named.

Common to all, as to details: HEK293T cells; panel 1c (compare within a panel only); scale: mean GFP / mean GFP of wild type, printed, no background subtraction
Series [1] relates to T1, dCas12j-8 D523R D523R;D369A;E567A;D658A (bacteriophage (metagenome)).
T1 sequence: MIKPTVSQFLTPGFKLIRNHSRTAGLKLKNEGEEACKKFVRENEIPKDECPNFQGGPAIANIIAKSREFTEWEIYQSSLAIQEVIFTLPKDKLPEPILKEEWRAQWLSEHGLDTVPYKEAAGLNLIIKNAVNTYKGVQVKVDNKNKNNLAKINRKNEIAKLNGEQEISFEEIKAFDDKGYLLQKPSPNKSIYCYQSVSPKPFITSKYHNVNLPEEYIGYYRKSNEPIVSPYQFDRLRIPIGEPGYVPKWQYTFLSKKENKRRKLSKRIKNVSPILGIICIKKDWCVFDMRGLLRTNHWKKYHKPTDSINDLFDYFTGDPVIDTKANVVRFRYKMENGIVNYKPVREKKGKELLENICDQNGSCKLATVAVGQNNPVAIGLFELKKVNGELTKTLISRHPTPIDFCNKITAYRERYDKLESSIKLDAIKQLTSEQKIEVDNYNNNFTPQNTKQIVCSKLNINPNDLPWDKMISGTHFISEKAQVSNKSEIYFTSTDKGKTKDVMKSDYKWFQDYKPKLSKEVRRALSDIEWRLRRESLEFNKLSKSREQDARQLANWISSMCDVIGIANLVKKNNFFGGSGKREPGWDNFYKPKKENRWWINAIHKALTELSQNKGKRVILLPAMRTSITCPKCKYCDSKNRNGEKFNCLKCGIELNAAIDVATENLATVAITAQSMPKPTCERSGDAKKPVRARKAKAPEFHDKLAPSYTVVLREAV

In series [2] the test system is T2, dCas12j-8 E258R E258R;D369A;E567A;D658A (bacteriophage (metagenome)).
T2 sequence: T1 sequence with E258R, R523D

Series [3] relates to T3, dCas12j-8 D495R D495R;D369A;E567A;D658A (bacteriophage (metagenome)).
T3 sequence: T1 sequence with D495R, R523D

The subject of series [4] is T4, dCas12j-8 E100R E100R;D369A;E567A;D658A (bacteriophage (metagenome)).
T4 sequence: T1 sequence with E100R, R523D

“CUUUCAAGACUAAUAGAUUGCUCCUUACGAGGAGACACUCCCUAUCAGUGAUAGAG / TTNACTCCCTATCAGTGATAGAG / CTCTATCACTGATAGGGAGTNAA [TetO]”: the binding signal came out at 1.32 in series [1], 1.68 in series [2], 1.18 in series [3] and 0.834 in series [4].
